# Source: US20260015426A1
# Substitutions are numbered along the chain they refer to.
# B1: 9D5 (purified mAb from hybridoma 9D5) (antibody, V domains shown)
# VH: QVQLQQSGAELARPGASVKFSCKASGYTFTSYWMQWVKQRPGQGLEWIGTIYPGDGNTRYTQKFKGKATLTADKSSSTAYMQLSGLASEDSAVYYCARGYFGNLVFDVWGAGTTVTVSS
# VL: DIKMTQSPSSMYASLGERVTITCKASQDINTYLSWFLQKPGKSPKTLIYRADRLVDGVPSRFSGGGSGQDYSLTISSLEYEDLGIYYCLQYDEFPYTFGSGTKLEIK
# B2: 8H1 (purified mAb from hybridoma 8H1) (antibody, V domains shown)
# VH: QVQLQQSGPELVKSGASVRISCKASGYAFSGSWMNWVKQRPGKGLEWIGRIYPGDGNTNYNGKFKDKATLTADKSSSTAFMQLSSLTSEDSAVYFCARDYYLFYFDYWGQGTTLTVSS
# VL: NIVMTQTPKFLPVAAEDRVIITCKASQDVSNEVAWYQQKPGQSPKLLMYYASNRYTGVPDRFTGSGSGTDFTFTISSVQVEDLAVYFCQQHYSSPLTFGAGTKLELK
# B3: 10A11 (purified mAb from hybridoma 10A11) (antibody, V domains shown)
# VH: EVQLQQSGAELVKPGASVRLSCTSSGFNIKDYFMHWVKQRTEQGLEWVGRIDPEDGETQYAPNFQDKATITVDTSSNTVYLQLSSLTSEDTAVYYCFRPLYYGNSPWFAYWGQGTLVTVSP
# VL: DIQMTQTTSSLSASLGDRVTISCRASQDISNYLNWYQQKPDGTVKLLIYYTSTLHSGVPSRFSGSGSGTDYSLTISNLEPEDIATYYCHQYSKFPPTFGSGTKLEIK
# B4: 11C5(Hy) (purified mAb from the 11C5 hybridoma) (antibody, V domains shown)
# VH: EVQLVESGGGLVKPGGSLKLSCAASGFTFSNYAMSWVRQTPEKRLEWVATVTEGGDYNYCLDDVKGRFTISRDNANDNLYLQMSHLKSEDSARYYCARDRWPYFFDYWGQGTTLTVSS
# VL: DIQMTQSPASLSVSVGETVTITCRASENIYSNLAWYQQKQGRSPQLLVYGAKNLADGVPSRFSGSGSGTQYSLNINSLQSEDFGTYYCQHFWTTPRTFGGGTKLEIK
# B5: 13D8 (purified mAb from hybridoma 13D8) (antibody, V domains shown)
# VH: EVQLVESGGGLVKPGGSLKLSCTASGFTFSNYAMSWVRQTPEKRLEWVATISDGGNYTYYPDNVKGRFTISRDIAKNNLYLQMSHLKSEDTAMYYCARDRWPYFFDFWGQGTTLTVSS
# VL: B4 VL with E27D, Q38E, R42K, K52T, N74K, T85S, T97S, I106L
# Target: hu-M-IL1RAP-D3 construct, positions K238-T367 (human)
# Assay: ELISA, mAb at 10 nM
# Chain of hu-M-IL1RAP-D3 construct, positions K238-T367 (human) (chain, as listed by the source limits assumed): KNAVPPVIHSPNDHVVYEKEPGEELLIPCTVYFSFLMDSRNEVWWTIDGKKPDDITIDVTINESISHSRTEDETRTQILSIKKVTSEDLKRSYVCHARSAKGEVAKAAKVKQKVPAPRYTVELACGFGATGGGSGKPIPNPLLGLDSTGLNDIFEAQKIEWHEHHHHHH
row,A450,Binder
1,0.045 A450,B1
2,0.045 A450,B2

# Target: hu-M-IL1RAP-D1 construct, positions S21-Q133 (human)
# Assay: ELISA, mAb at 10 nM
# Chain of hu-M-IL1RAP-D1 construct, positions S21-Q133 (human) (chain, as listed by the source limits assumed): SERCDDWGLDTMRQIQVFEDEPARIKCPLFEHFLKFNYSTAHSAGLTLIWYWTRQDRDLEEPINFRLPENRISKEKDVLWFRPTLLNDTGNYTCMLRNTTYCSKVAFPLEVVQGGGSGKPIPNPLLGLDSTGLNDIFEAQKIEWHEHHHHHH
row,A450,Binder
1,0.046 A450,B3
2,0.047 A450,B1
3,0.048 A450,B4
4,0.046 A450,B5
5,0.045 A450,B2

# Target: hu-M-IL1RAP-D1D2 construct, positions S21-P237 (human)
# Assay: ELISA, mAb at 10 nM
# Chain of hu-M-IL1RAP-D1D2 construct, positions S21-P237 (human) (chain, as listed by the source limits assumed): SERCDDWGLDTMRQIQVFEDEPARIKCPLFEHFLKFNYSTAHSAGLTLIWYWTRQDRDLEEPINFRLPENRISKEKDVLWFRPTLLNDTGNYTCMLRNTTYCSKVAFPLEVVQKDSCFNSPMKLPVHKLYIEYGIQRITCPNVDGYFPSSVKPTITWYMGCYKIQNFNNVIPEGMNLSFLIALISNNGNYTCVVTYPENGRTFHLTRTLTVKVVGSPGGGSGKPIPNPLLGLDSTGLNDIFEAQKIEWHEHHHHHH
row,A450,Binder
1,0.046 A450,B3
2,0.048 A450,B4
3,0.044 A450,B5
